B1: unnamed (protein)
chain: MKSQFRKKIKKAKLESALKVFGAFMFASAISTPAAFAINPGGNSDGNSDAGCNSNCSLGIDPTSEMLEKEQGPYVIDYIDIPKSVAGFAGGRIHFPKGLDQRLGLVVIGPGFLYTDESSSRWLGPRLASNGFVTVNINFNTVMDQPDMRANQYDKALDYVIKLSKDSSSPLYGLVDENRLGAAGWSMGGGAALKLSNMRPLKAIMPWAPWYIPAGAFSSVQTPSLIIACKGDIIAPEGIHASAFYNVIPDSTPKEYVKFAKGNHWCSNNRSNYKPLIGKLSIAWFKRFMDEDNRYEKFICDGDIKDESGVAEFRDNCGSWK
B2: unnamed (protein)
chain: MKFEPLPGASPAVQPSMRFVLKRAGMATALLLSSFAAQAQVALVQENFSAGLGNFTAVGTVNTSDGSARLQGCYGCTDAVITSNAISTQGFTNLSLSFDRATAGLDTGEAGTAEFSTDGANWTIVESTRTTTTGRVSFALPASAAAQAALRLRFRINASLSSETYVVDNIQLTGTPGDPGDPDDPGANPFAKGPNPTAELLESSTGPFTYSSTVVARSAASGYGGGTIYHPTNVAGPFAAIAISPGYTGTKSTMSWWGQRLASHGFVVITIDTNSTTDQPSSRATQLMASLRQLVTFSNTSSHPIYRKVDPNRLGVMGHSMGGGGTLIAARDNPTLKAAIPLAPWSSVGNTNFSSVQVPTLVVACEADAIAPVAQHASPFYNSISGSTRKAYIEMNNGDHLCVMTGNSYTRIMGKYGVSWMKRFMDNDTRYSPFLCGAPHQADLSNAQVSEYRENCPY
B3: unnamed (protein)
chain: MKIKNRTACTTAAPSPARRRLAMASLAAAGLLCSFTAQAQVAVFQENFTSGLGSFTAAGSATNSSGAARLAGCYGCTDGAITSGPISTVGFSSLSLSFDRVTSGLDIGEGGIAEYSTNGSTWTALETTRATSNGRVTFNLPAAAAGQTGLRLRFRIDANLSSETYTVDNIQLTGISGDGGGTNPHAKGPAPTASLLEASTGPFTYASTNVSSLSADGYGGATIFHPTNVAGPFAAIAISPGYTGTKSTMTWWGERLASHGFVVAVIDTNSIYDQPYQRAPQLMAALRQLVTFSNTSSHPIYRKVDPNRLGVMGHSMGGGGTLIAARDNPTLKAAIPLAPWNTSTNFSSVSVPTLVVACESDSIAPVNSHASPFYNSLPSSTRKAFMEMNNGDHFCVMNGNDFTRIMGKYGVAWMKRFLDNDTRYSPFLCGAQHQADLSNSQLSEYRENCPY
B4: unnamed (protein)
chain: MKSFLKKIYLGTGMLLVSANALSYTPAPTPNPTPITTPVECQDDCDFSRGPNPTSSSIEGVGPYSVATQNVPSSVSGFGGGTIHYPRGISGTVGAIAVVPGFVSPESSIIWWGPRLASHGFVVITIATNSIFDQPASREAQLGRALDYVINQNNSSNSPISGLVDTSRLGAMGWSMGGGGSLRLASGDRLSAVIPLAPWNEGSRGFRQLETPTLVIACERDLIAPVGVHASPFYNAIPSTTDKAFLEVNNGSHSCANGGGINGGLLSKYGVSWMKRFIDNDTRYQQFLCGPNHAANPAISEYRDTCNY
B5: unnamed (protein)
chain: MQRKRYNTITNRARASLLAGVGLAFFSVLAQADVLFQENFDSSLGQFTSTGSVSVTTSGARMAGSFGGTDGAITSSPISTVGFTGITLTLTRTTTGLDSGEAGIAEFSTNGSTYTVIQSLQTASGAVTLNLPATAGGQSSLRLRFRVNASSSTEYFTVDSIRLEGTPGSGGGGGGTNPYQRGPAPTTSSLDASRGPFSVGSRTVSDTQVSGYDGGTLWYPTNTSEGPFAAIAIIPGFLSSEGSIREWGPRLASWGFVVITVETLTYGDLPPSRRDQLIAAMNDVLMWSDQSGHPIYGKVDKTRQALMGWSMGGGGTLLGLQENPTRFKAGIGLAPWNSTETFTSSIRQPVLIFACESDIIAPVASHAYPFYRNMPTTNKKAFAEVNNGDHFCANDPRNNSGRLGRYGVSWMKRFLDDDTRFTQFLCGTHSTWTFSRYLSTCPY
B6: unnamed (protein)
chain: MFPYVAVRVTEETNSRRTTLSNKAATRVSFNRQETDVKFKFVKTALVAAAMACSASAFAQYQKGPDPTTSSLERAGSFATRTLNVSSLSASGFGGGRIWYPTASGSYGVVAVSPGFTGTASTMYFWGERLSSHGFVVIVIETNTLYDQPDSRARQLTSALNYVVSQGNSRTSALYGKVDGNRRAVAGHSMGGGGTLIAAADNPSLKAAIPMAPWNLSSLSFSRIRVPTFIFSCQSDAIAPVAQHSNPFYNAIPSTTSKNLVEMRLDDHFCVMNGGGHYETLGKLGIAWVKRFVDQDTRYSKFLCGNEYNSTVRSTEVSSNRNNCPY
B7: unnamed (protein)
chain: MRETSLHRSPAPALAQACTRAASRLRFAALGLAAGLLSLAAQAQINPDQRGPNPTAASLEATAGPYAVKTSKVASQSNFGGGTVYFPDSNEGPFGVIAIAPGFTEGQSVNSWWGNRLASHGFVVITASMKNVLQYPTPRAKELVAALNYVVAQSQTSGSPYFGKVDPARRGVMGHSMGGGGTLEVVRDDPTIKAAIPLAPWDLSKVFTQVTTPTLIVACEKDAIAPVNTHASTFYDSLSASLDKAFLELKGADHFCTNTSTTAARKTVLGKYGVAWMKRFIDSDTRYAPFLCGATHEAYLSASSSVISRYKSSCPY
B8: unnamed (protein)
chain: MISTRRFPMRRLAIGLVFVFAAVLGACDWRGPTPTEQLLTASTGPFTVSTLAVPTSAGFGGGTIYYPSTTPGPFAVVSLSPGFTESQSAIAGWGPRLASHGFVTIIINTSNPFIDPSQRSTEQRQALTYVVTQGQTSGSPIFGKVDGQRRGVGGHSMGGGASLISAQADPTIRAVMPMAPWNSSASFPGITSPTLILACQNDGIAPVGSHASPMYNSIPASTKKEYISVAGGDHSCANAPTGGGSAVGKFGVAFLKRFLDNDGRYDPWTCGASKPVAGGSLSEVRSTCPF
B9: unnamed (protein)
chain: MEMFVVPKINITFNEVAVMPSSIPVKILTGVCSLLFSVSAFSFTPSPDPDPDPGPGPCQEDCDFTRGPNPTSNYLEASSGPYNVSTIGVSRSVSGFGGGTVHYPQGTTGTMGAIAIVPGFLAGESSIAWWGPRLASHGFVVITIATNSTFDQPGSRSTQLGRALDYVINLSNSSSSPISGMVDSTRVAAMGWSMGGGGTLRLASGGRLSAAIPLAPWNTGSNSFNQITTPTLILACENDSTAPVSVHASPFYNRIPSSTDKAYLEINNGSHSCANGGGANGGLLGKYGVSWMKRFIDDDARYSQFLCGPNHQANSAISEYRDTCNY
B10: unnamed (protein)
chain: MKTTVSRIKGLSVAAAMALASLATPALSQTSAPTSASLNATSGPLSVSTASVLLPVGFGGGTIYYPTVAGKYGVIAISPGFTATQSSIAWLGRRIATHGFVVITMNTITTLDQPDSRATQLMAALRYVLNSSGTAVRARIDSTRLAVAGHSMGGGGSLIAARDNPTLKASYPMTPWNLSTNFSTVRVPTMIIGADGDTIAPVAVHARPFYASLPSSTYKAYGELNNGTHFSPNSTNTPIGRYAVAWMKRFVDGDTRYSPFLCGAEHAAYATGWVFDRYNQNCPY
B11: unnamed (protein)
chain: MKTIERGQRRCAVGLGLLLLAAAAHAQTNPLAKGPDPTSALLNANAGPFAIASTAVPSSVAGFGGGTVYYPTAAGSYATVAICPGFTATQSSIAWIGQRMASHGFVAMTINTNSTFDQPPSRATQLMAALRYLTNSSNSTVRARVDASRLGVAGHSMGGGGTLMAARDNTTLKAAVPLTPWSQTKSFSTVRVPTLVVGAENDTVAPVAQHSIPFYTSLPASLDKAYAELNNASHFAPNSTNTAIGRYSVAWVKRFMDNDTRYEPFLCGAPHTAFATPTVFSDYRSTCPYQ
B12: unnamed (protein)
chain: MKNTAFRKVSVVAVTFLLSVTAFAGGGGGGGGDNSGALPLPDTCNSNCGYELGPNPSLSFVQANRGPQPTTTTNVSSSVDGFGGGTIYYPTNISQEMAAISIAPGFTNTQSAVAWWGPVLASHGFVVITIDTNGRFDQPESRSRQLDAALNHLISESDRSSSPISGLVDRNRLATMGFSMGGGGSLRSASRNRLSAAVPLAPWSVGGNNFNQIGVPTMIMACENDGTAGINQHARPFYNAIPGSTDKVYLEINDGPHNCANGNNINNATLSTYGVSWMKRFLDKDRRFNQFLCGPNHEANSRISQFRDTCLF
B13: unnamed (protein)
chain: MHQGIHMERKNIRRRWAIGLLGMLVLAASAHAQTNPHQKGPDPTSASLNATSGSFSVATSSVSSLGAVGFGGGTVYYPTTTGTYAVLAICPGFTATQSSIAWLGRRIATHGFVVITIDTNSTLDQPPSRATQLMAALNYVTNSSSATVRSRVDASRRGVAGHSMGGGGTLYAARDNPSLKAAVPLTAWSTLKSFSSVQVPTLVVGAESDSIASVSSHSIPFYNSLSTSLDKAYAELNGATHFAPNSTNTPIGRYSVSWVKRFMDNDTRYTPFLCGAPHQSYATSLVFSDYRSTCPY
B14: unnamed (protein)
chain: MTTSNTRTLARLALAAAALLLSAAAQAQANPYQRGPDPTAASLEATAGPFAVATTKVASPSGYGGGTVYYPTTTEGPFGLIAVAPGFTETQSAISWWGPRLASHGFVVITIDTKSTLDQPASRAKQLMAALNYVVALSQTSSSPFYGKVDASRQGVMGHSMGGGGTLEAARDNPTLKAAIPLAPWNTTKNFSKVTVPTLIIACENDAIAPVSSHASPFYDSLPSSLDKAYLELKGADHFCTNSSATNKTVIGKYGVAWMKRFVDNDTRYSPFLCGAPHQADLSGSVISRYKDNCPY

Substrate: BHET
Settings: 120 h

Row | Protein | plate clearing
1 | B1 | not clears the plate
2 | B2 | clears the plate (z > 3 vs empty vector)
3 | B3 | clears the plate (z > 3 vs empty vector)
4 | B4 | not clears the plate
5 | B5 | not clears the plate
6 | B6 | not clears the plate
7 | B7 | not clears the plate
8 | B8 | not clears the plate
9 | B9 | not clears the plate
10 | B10 | not clears the plate
11 | B11 | not clears the plate
12 | B12 | not clears the plate
13 | B13 | not clears the plate
14 | B14 | not clears the plate

From the PETadex activity labels
